B1: TMPRSS4 Ab19 scFv (VH-VL) (scFv)
scFv: QVQLVQSGAEVKKPGASVKVSCKASGYTFNRKFMHWVRQAPGQGLEWMGWMNPNNGATNYAQKFQGRVTMTRDTSTSTVYMELSSLRSEDTAVYYCARGRGYYGSGSYYGDYWGQGTLVTVSSGGGGSGGGGSGGGGSDIQMTQSPSSLSASVGDRVTITCRASQSISRYLNWYQQKPGKAPKLLIYGASNLQSGVPSRFSGSGSGTDFTLTISSLQPEDFATYYCQQSYSTPPTFGPGTKVDIK
notes: on monoclonal phage in the screen
B2: TMPRSS4 Ab25 scFv (VH-VL) (scFv)
scFv: QVQLVQSGAEVKKPGASVKVSCKASGGRFSTYALSWVRQAPGQGLEWMGWINPNSGGTNYAQKFQGRVTMTRDTSTSTVYMELSSLRSEDTAVYYCAKSLWWSPSHYYYYGMDVWGQGTTVTVSSGGGGSGGGGSGGGGSEIVMTQSPATLSVSPGERATLSCRASQSVSSNYLAWYQQKPGQAPRLLIYGISTRASGIPARFSGSGSGTEFTLTISSLQSEDFAVYYCQQRSNWPPSITFGQGTRLEIK
notes: as for B1
B3: TMPRSS4 Ab2 scFv (VH-VL) (scFv)
scFv: EVQLLESGGGLVQPGGSLRLSCAASGFTFSDYYMSWVRQAPGKGLEWVSYISGSGDAIYYADSVKGRFTISRDNSKNTLYLQMNSLRAEDTAVYYCARDRSDCGGDDRFLCDGYFDLWGRGTLVSLSGGGGSGGGGSGGGGSDIQMTQSPSSLSASVGDRVTITCRASQSTNNYVNWYQQKPGKAPKLLIYAASSLQSGVPSRFSGSGSGTDFTLTISSLQPEDFATYYCQQSYSIPLTFGPGTKVDIK
notes: as for B1
B4: TMPRSS4 Ab32 scFv (VH-VL) (scFv)
scFv: QVQLVQSGAEVKKPGSSVKVSCKASGGTFSSYAISWVRQAPGQGLEWMGRINPSGGSTSYAQKFQGRVTMTRDTSTSTVYMELSSLRSEDTAVYYCARGRYSSSSWGQGTLVTVSSGGGGSGGGGSGGGGSDIQMTQSPSSLSASVGDRVTITCRASQSISTYLNWYQQKPGKAPKLLIYAASSLQRGVPSRFSGSGSGTDFTLTISSLQPEDFATYYCQQSYTTPLTFGGGTKVEIK
notes: as for B1
B5: TMPRSS4 Ab3 scFv (VH-VL) (scFv)
scFv: QVQLVQSGAEVKKPGSSVKVSCKASGYTFTSYDINWVRQAPGQGLEWMGGIIPIFGTTKFAQKFQGRVTITADESTSTAYMELSSLRSEDTAVYYCARDWYSSSWYNGDRGDWFDPWGQGTLVTVSSGGGGSGGGGSGGGGSDIVMTQSPLSLPVTPGEPASISCRSSGSLLHSNGYNYLDWYLQKPGQSPQLLIYAASSLQSGVPDRFSGSGSGTDFTLKISRVEAEDVGVYYCMQGTHWPGTFGQGTKVEIK
notes: as for B1
B6: TMPRSS4 Ab16 scFv (VH-VL) (scFv)
scFv: QVQLVQSGAEVKKPGASVKVSCKASGYTFSRHYMHWVRQAPGQGLEWMGRINPNSGGTNYAQKFQGRVTMTRDTSTSTVYMELSSLRSEDTAVYYCARSIYGDYWFDPWGQGTLVTVSSGGGGSGGGGSGGGGSDIQMTQSPSSLSASVGDRVTITCRASQSINRWLAWYQQKPGKAPKLLIYGASNLQSGVPSRFSGSGSGTDFTLTISSLQPEDFATYYCQQANSFPYTFGQGTKLEIK
notes: as for B1
B7: TMPRSS4 Ab18 scFv (VH-VL) (scFv)
scFv: QVQLVQSGAEVKKPGASVKVSCKASGYTFTSSGINWVRQAPGQGLEWMGWINPNSGGAKYAQRFQGRVTMTRDTSTSTVYMELSSLRSEDTAVYYCARARGYSGSKRDFQHWGQGTLVTVSSGGGGSGGGGSGGGGSDIVMTQSPDSLAVSLGERATINCKSSQSVLYSSNNKNYLAWYQQKPGQPPKLLIYWASTRESGVPDRFSGSGSGTDFTLTISSLQAEDVAVYHCQQYYNTPFTFGPGTKVDIK
notes: as for B1
B8: TMPRSS4 Ab24 scFv (VH-VL) (scFv)
scFv: QVQLVQSGAEVKKSGASVKVSCKASGYTFTSYYMHWVRQAPGQGLEWMGVINPSGGTTSYAQKFQGRVTMTRETSTSTVYMELSSLRSEDTAVYYCARGRGWLRSALGYWGQGTLVTVSSGGGGSGGGGSGGGGSDIQMTQSPSSLSASVGDRVTITCRASQSISSWLAWYQQKPGKAPKLLIYAASTLQSGVPSRFSGSGSGTDFTLTISSLQPEDFATYYCQQSYNTPYTFGQGTKLEIK
notes: as for B1
B9: TMPRSS4 Ab35 scFv (VH-VL) (scFv)
scFv: QVQLVQSGAEVKKPGASVKVSCKASGYTFTGYYMHWVRQAPGQGLEWMGKISAHSGETKYAQNVQGRVTMTRDTSTSTVYMELSSLRSEDTAVYYCARANYYGDYVNYYYGMDVWGQGTTVTVSSGGGGSGGGGSGGGGSDIQMTQSPSSLSASVGDRVTITCQASQDISNYLNWYQQKPGKAPKLLIYKASSLESGVPSRFSGSGSGTDFTLTISSLQPEDFATYYCQQTYTIPITFGQGTRLEIK
notes: as for B1
B10: TMPRSS4 Ab28 scFv (VH-VL) (scFv)
scFv: QVQLVQSGAEVKKPGASVKVSCKASGYTFTGYYMHWVRQAPGQGLEWMGWMNPNSGNTGYAQKFQGRVTMTRDTSTSTVYMELSSLRSEDTAVYYCARLRAKGGGFDYWGQGTLVTVSSGGGGSGGGGSGGGGSDIQMTQSPSSLSASVGDRVTITCRASQGIGNYLAWYQQKPGKAPKLLIYAASSLESGVPSRFSGSGSGTDFTLTISSLQPEDFATYYCQQGYRFPPTFGPGTKVDIK
notes: as for B1
B11: TMPRSS4 Ab26 scFv (VH-VL) (scFv)
scFv: EVQLLESGGGLVQPGGSLRLSCAASGFTFSSYAMHWVRQAPGKGLEWVAVIWYDGSSKYYADSVKGRFTISRDNSKNTLYLQMNSLRAEDTAVYYCARGEVRRGFQHWGQGTLVTVSSGGGGSGGGGSGGGGSDIQMTQSPSSLSASVGDRVTITCRASQNVGSWLAWYQQKPGKAPKLLIYAASSLQSGVPSRFSGSGSGTDFTLTIRSLQPEDFATYYCQQSYSTPITFGQGTRLEIK
notes: as for B1
B12: TMPRSS4 Ab34 scFv (VH-VL) (scFv)
scFv: QVQLVQSGAEVKKPGASVKVSCKASGYTFTGYYIHWVRQAPGQGLEWMGWMNPHSGNTGYAQKFQGRVTMTRDTSTSTVYMELSSLRSEDTAVYYCAREGGRYSSGRLGYWGQGTLVTVSSGGGGSGGGGSGGGGSDIQMTQSPSSLSASVGDRVTITCRASQGISSWLAWYQQKPGKAPKLLIYAASTLQTGVPSRFSGSGSGTDFTLTISSLQPEDFATYYCQQSKSIPITFGGGTKVEIK
notes: as for B1
B13: TMPRSS4 Ab30 scFv (VH-VL) (scFv)
scFv: QVQLVQSGAEVKKPGASVKVSCKASGYTFTTYYMHWVRQAPGQGLEWMGWMNPNSGNTGYAQKFQGRVTMTRDTSTSTVYMELSSLRSEDTAVYYCARARTWLLSPFDYWGQGTLVTVSSGGGGSGGGGSGGGGSEIVMTQSPATLSVSPGERATLSCRASQSVGRYLAWYQQKPGQAPRLLIYGASTRATGIPARFSGSGSGTEFTLTISSLQSEDFAVYYCQHYDSSPMYTFGQGTKLEIK
notes: as for B1
B14: TMPRSS4 Ab22 scFv (VH-VL) (scFv)
scFv: QVQLVQSGAEVKKPGASVKVSCKASGYTFTSYYMHWVRQAPGQGLEWMGRINPHSGDADFVDKFQGRVTMTRDTSTSTVYMELSSLRSEDTAVYYCARDRRGYGGNSLDYWGQGTLVTVSSGGGGSGGGGSGGGGSDIQMTQSPSSLSASVGDRVTITCRAGQNIKRYLNWYQQKPGKAPKLLIYAASSLQSGVPSRFSGSGSGTDFTLTISSLQPEDFATYYCQQSYSSPLTFGGGTKVEIK
notes: as for B1
B15: TMPRSS4 Ab33 scFv (VH-VL) (scFv)
scFv: QVQLVQSGAEVKKPGASVKVSCKASGYTFSNYYMHWVRQAPGQGLEWVGWMNPKSGNTGYAQKFQGRVTMTRDTSTSTVYMELSSLRSEDTAVYYCARGRTWIQSSLGYWGQGTLVTVSSGGGGSGGGGSGGGGSDIQMTQSPSSLSASVGDRVTITCRASQYISRWLAWYQQKPGKAPKLLIYGSSTLQSGVPSRFSGSGSGTDFTLTISSLQPEDFATYYCQQYYSTPFTFGPGTKLEIK
notes: as for B1
B16: TMPRSS4 Ab27 scFv (VH-VL) (scFv)
scFv: QVQLVQSGAEVKKPGASVKVSCKASGYTFSRYYMHWVRQAPGQGLEWMGWMNPNSGDTGYAQKFQGRVTMTRDTSTSTVYMELSSLRSEDTAVYYCAKGREWLRSPFDYWGQGTLVTVSSGGGGSGGGGSGGGGSDIQMTQSPSSLSASVGDRVTITCRASQSISTWLAWYQQKPGKAPKLLIYAASSLQSGVPSRFSGSGSGTDFTLTISSLQPEDFATYYCQQLSSYPLTFGQGTKVEIK
notes: as for B1
B17: TMPRSS4 Ab20 scFv (VH-VL) (scFv)
scFv: QVQLVQSGAEVKKPGASVKVSCKASGYTFTRYYMHWVRQAPGQGLEWMGWMNPNSGNAGYAQKLQGRVTMTRDTSTSTVYMELSSLRSEDTAVYYCARGYNWFDPWGQGTLVTVSSGGGGSGGGGSGGGGSDIQMTQSPSSLSASVGDRVTITCRASQNIATYLSWYQQKPGKAPKLLIYGASALRSGVPSRFSGSGSGTDFTLTISSLQPEDFATYYCLQHNTYPLTFGGGTKVEIK
notes: as for B1
B18: TMPRSS4 Ab23 scFv (VH-VL) (scFv)
scFv: QVQLVQSGAEVKKPGASVKVSCKASGYTFTRNYLHWVRQAPGQGLEWMGIINPSGGSTTYAQKFQGRVTMTRDTSTSTVYMELSSLRSEDTAVYYCARGRTWFRSGMDVWGQGTTVTVSSGGGGSGGGGSGGGGSEIVMTQSPATLSVSPGERATLSCRASQSVGNYLAWYQQKPGQAPRLLIYGASTRATGIPARFSGSGSGTEFTLTISSLQSEDFAVYYCQQYHSSPPYTFGQGTKVEIK
notes: as for B1
B19: TMPRSS4 Ab17 scFv (VH-VL) (scFv)
scFv: QVQLVQSGAEVKKPGASVKVSCKASGYTFTSYYIHWVRQAPGQGLEWMGWMSPNSGDTGYAQKFQGRVTMTRDTSTSTVYMELSSLRSEDTAVYYCARLVRGGFDYWGQGTLVTVSSGGGGSGGGGSGGGGSDIQMTQSPSSLSASVGDRVTITCRASQGISSYLNWYQQKPGKAPKLLIYAASRLQSGVPSRFSGSGSGTDFTLTISSLQPEDFATYYCQQSYRSPPTFGQGTKLEIK
notes: as for B1
B20: TMPRSS4 Ab31 scFv (VH-VL) (scFv)
scFv: QVQLVQSGAEVKKPGSSVKVSCKASGYTFRGSGISWVRQAPGQGLEWMGIIYPADSETRYSPSFQGRVTITADESTSTAYMELSSLRSEDTAVYYCARESSSWDYFDYWGQGTLVTVSSGGGGSGGGGSGGGGSEIVMTQSPATLSVSPGERATLSCRASQSVRSYLAWYQQKPGQAPRLLIYGASTRATGIPARFSGSGSGTEFTLTISSLQSEDFAVYYCQQHGSLPLTFGQGTKVEIK
notes: as for B1

The target in this test is T1, Human TMPRSS4 (Transmembrane protease, serine 4), wild type full length (human, UniProt Q9NRS4 1-437).
T1 construct: Type II membrane protein over-expressed on HEK293T cells (also endogenous on H1975 and LUDLU-1 cells); also called TMPRSS4 WT; HEK293T-TMPRSS4
T1 sequence (Q9NRS4 whole entry): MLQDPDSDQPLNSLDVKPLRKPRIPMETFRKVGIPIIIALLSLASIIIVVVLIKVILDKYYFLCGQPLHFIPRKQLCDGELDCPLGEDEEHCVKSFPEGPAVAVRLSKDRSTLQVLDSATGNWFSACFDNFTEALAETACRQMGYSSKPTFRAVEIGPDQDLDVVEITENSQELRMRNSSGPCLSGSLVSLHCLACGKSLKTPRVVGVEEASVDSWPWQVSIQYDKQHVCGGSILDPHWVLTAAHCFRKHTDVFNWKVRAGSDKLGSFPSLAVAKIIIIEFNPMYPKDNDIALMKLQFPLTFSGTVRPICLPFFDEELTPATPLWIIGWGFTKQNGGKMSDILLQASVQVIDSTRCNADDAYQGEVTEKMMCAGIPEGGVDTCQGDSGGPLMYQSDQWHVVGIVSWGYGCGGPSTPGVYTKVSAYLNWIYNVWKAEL
Kind of test: flow cytometry, monoclonal phage on HEK293T-TMPRSS4 cells.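 Also: bound phage detected with a PE-labelled mouse anti-M13 monoclonal antibody, read by flow cytometry.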 In general terms: Flow cytometry measures light scatter and fluorescence of single cells or particles in a stream.
Consider B1, for which the binding result is reported as “binds”.

Consider B2, for which the binding result is given as “binds”.

In the case of B3, the binding result is reported as “binds”.

For B4, the binding result is “binds”.

For B5, the binding result is given as “binds”.

Turning to B6, the binding result is listed as “binds”.

Take B7: the binding result is “binds”.

As for B8, the binding result was “binds”.

Consider B9, for which the binding result is given as “binds”.

Consider B10, for which the binding result is “binds”.

Regarding B11, the binding result was “binds”.

On to B12, for which the binding result is given as “binds”.

As to B13, the binding result is recorded as “binds”.

On to B14, for which the binding result is recorded as “binds”.

Take B15: the binding result is reported as “binds”.

For the molecule B16, the binding result is “binds”.

With B17, the binding result is listed as “binds”.

Consider B18, for which the binding result is “binds”.

As for B19, the binding result is recorded as “binds”.

For B20, the binding result is on record as “binds”.

The record behind these values is patent US20250297255A1 (ARSENAL BIOSCIENCES, published 2025).
